Measured values as given in patent publication US7008922 (RIJKSUNIVERSITEIT TE LEIDEN, dated 2006).

Biological target: purified HLA-B7 (human)
Experiment: competition with iodinated … for purified HLA-B7

Row | IC50 [nM] | Binder
1 | 34 | SPSVDKARAEL (also called H-Y peptide; peptide 1171) [SMCY peptide SPSVDKARAEL]
2 | 140 | SPAVDKAQAEL (Synthetic, HPLC-purified peptide; Differs from the SMCY peptide by A for S at position 3 and Q for R at position 8; also called peptide derived from the X chromosomal homolog SMCX (XE169)) [SMCX peptide SPAVDKAQAEL]
